Data from patent US20040059519A1.
Values joined by “and” are separate entries in the source; they are usually repeats but may differ in a detail not shown here. Identical values can stand only once. One block for each substance: values may come before it.

Tests used:
[1] = target: Neutravidin (deglycosylated avidin) (UniProt P02701); assay: multiplex, Neutravidin bead 60/70 without peptide, flow cytometry
Peptide 7 …-biotin [2] = assay: multiplex peptide beads, flow cytometry; no free biotin
Peptide 8 …-biotin [3] = assay: as above
Peptide 2 …-biotin [4] = assay: as above
[5] = target: Peptide 5 …-biotin (human); assay: as above
Peptide 9 …-biotin [6] = assay: as above
Peptide 1 …-biotin [7] = assay: as above
Peptide 6 …-biotin [8] = assay: as above
Peptide 4 …-biotin [9] = assay: as above
Peptide 3 …-biotin [10] = assay: as above
[11] = target: Neutravidin (deglycosylated avidin) (UniProt P02701); assay: single-analyte, Neutravidin bead 70/40 without peptide, flow cytometry
Peptide 7 …-biotin [12] = assay: single-analyte peptide bead, flow cytometry; MAB 384-Bodipy 15.5 ug/mL
Peptide 8 …-biotin [13] = assay: as above
Peptide 2 …-biotin [14] = assay: as above
[15] = target: Peptide 5 …-biotin (human); assay: as above
Peptide 9 …-biotin [16] = assay: as above
Peptide 1 …-biotin [17] = assay: as above
Peptide 6 …-biotin [18] = assay: as above
Peptide 4 …-biotin [19] = assay: as above
Peptide 3 …-biotin [20] = assay: as above
[21] = target: Neutravidin (deglycosylated avidin) (UniProt P02701); assay: single-analyte, Neutravidin bead 70/50 without peptide, flow cytometry
[22] = target: Neutravidin (deglycosylated avidin) (UniProt P02701); assay: multiplex, Neutravidin bead 70/70 without peptide, flow cytometry
Alpha fetoprotein [23] = target: Alpha fetoprotein (UniProt P02771); assay: anti-AFP capture beads, flow cytometry; AFP 10.0 ng/mL, anti-AFP probe
Sequence of UniProt P02771 (P02771 19-609 limits assumed): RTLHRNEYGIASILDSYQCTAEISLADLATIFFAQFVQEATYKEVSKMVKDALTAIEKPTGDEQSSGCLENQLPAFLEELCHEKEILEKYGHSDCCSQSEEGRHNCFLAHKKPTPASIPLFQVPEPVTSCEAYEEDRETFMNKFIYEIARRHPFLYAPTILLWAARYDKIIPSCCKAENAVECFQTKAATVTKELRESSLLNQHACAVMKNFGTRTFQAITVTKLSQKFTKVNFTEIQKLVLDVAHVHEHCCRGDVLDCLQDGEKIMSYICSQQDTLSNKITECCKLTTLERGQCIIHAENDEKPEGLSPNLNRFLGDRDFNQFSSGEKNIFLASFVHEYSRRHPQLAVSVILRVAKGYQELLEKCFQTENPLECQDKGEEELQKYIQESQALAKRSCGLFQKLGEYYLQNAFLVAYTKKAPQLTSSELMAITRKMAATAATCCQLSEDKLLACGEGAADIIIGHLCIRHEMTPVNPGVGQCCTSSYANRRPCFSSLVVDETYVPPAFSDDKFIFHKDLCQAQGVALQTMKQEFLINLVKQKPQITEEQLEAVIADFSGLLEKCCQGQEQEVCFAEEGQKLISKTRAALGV

Alpha fetoprotein [24] = target: Alpha fetoprotein (UniProt P02771); assay: multiplex sandwich, S10473 capture beads; AFP 1000 ng/mL, no wash
Alpha fetoprotein [25] = target: Alpha fetoprotein (UniProt P02771); assay: multiplex sandwich, S10473 capture beads; AFP 500 ng/mL, no wash
Alpha fetoprotein [26] = target: Alpha fetoprotein (UniProt P02771); assay: multiplex sandwich, S10473 capture beads; AFP 0.5 ng/mL, no wash
[27] = target: Human chorionic gonadotropin (human) (UniProt P01215); assay: MAB602 capture beads, flow cytometry; hCG 0.0 ng/mL, anti-AFP probe
Sequence of UniProt P01215 (P01215 25-116, chain 1 of 2, other chains not shown): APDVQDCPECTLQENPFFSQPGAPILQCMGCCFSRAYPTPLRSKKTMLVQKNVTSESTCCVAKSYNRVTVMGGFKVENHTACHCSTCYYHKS

[28] = target: Human chorionic gonadotropin (human) (UniProt P01215); assay: anti-AFP capture beads, flow cytometry; hCG 100.0 ng/mL, anti-AFP probe
[29] = target: Human chorionic gonadotropin (human) (UniProt P01215); assay: anti-AFP capture beads, flow cytometry; hCG 0.0 ng/mL, anti-AFP probe
Alpha fetoprotein [30] = target: Alpha fetoprotein (UniProt P02771); assay: multiplex no-wash sandwich, S10473 beads; serum Level 2, AFP 53.8 U/mL
[31] = target: Human chorionic gonadotropin (human) (UniProt P01215); assay: multiplex sandwich, MAB602 capture beads; hCG 31 ng/mL, no wash
Alpha fetoprotein [32] = target: Alpha fetoprotein (UniProt P02771); assay: anti-AFP capture beads, flow cytometry; AFP 100.0 ng/mL, anti-hCG probe
[33] = target: Human chorionic gonadotropin (human) (UniProt P01215); assay: multiplex no-wash sandwich, MAB602 beads; serum Level 3D, hCG 218 mU/mL
Alpha fetoprotein [34] = target: Alpha fetoprotein (UniProt P02771); assay: MAB602 capture beads, flow cytometry; AFP 1.0 ng/mL, anti-hCG probe
[35] = target: Human chorionic gonadotropin (human) (UniProt P01215); assay: multiplex no-wash sandwich, MAB602 beads; serum Level 1, hCG 22.8 mU/mL
[36] = target: Human chorionic gonadotropin (human) (UniProt P01215); assay: multiplex sandwich, MAB602 capture beads; hCG 16 ng/mL, no wash
[37] = target: Human chorionic gonadotropin (human) (UniProt P01215); assay: bead sandwich, flow cytometry; capture A3 beads, no hCG (background)
[38] = target: Human chorionic gonadotropin (human) (UniProt P01215); assay: sandwich, MAB602 capture beads, flow cytometry; hCG 0.002 ng/mL
[39] = target: Human chorionic gonadotropin (human) (UniProt P01215); assay: bead sandwich, flow cytometry; capture A2 (MAB 602) beads, hCG 20.0 ug/mL
Alpha fetoprotein [40] = target: Alpha fetoprotein (UniProt P02771); assay: anti-AFP capture beads, flow cytometry; AFP 1000.0 ng/mL, anti-hCG probe
[41] = target: Human chorionic gonadotropin (human) (UniProt P01215); assay: MAB602 capture beads, flow cytometry; hCG 0.1 ng/mL, anti-hCG probe
[42] = target: Human chorionic gonadotropin (human) (UniProt P01215); assay: MAB602 capture beads, flow cytometry; hCG 0.0 ng/mL, anti-hCG probe
Alpha fetoprotein [43] = target: Alpha fetoprotein (UniProt P02771); assay: MAB602 capture beads, flow cytometry; AFP 10.0 ng/mL, anti-hCG probe
[44] = target: Human chorionic gonadotropin (human) (UniProt P01215); assay: multiplex no-wash sandwich, MAB602 beads; Negative serum, hCG 10 mU/mL as printed

Sequence of UniProt P02701 (P02701 25-152 limits assumed): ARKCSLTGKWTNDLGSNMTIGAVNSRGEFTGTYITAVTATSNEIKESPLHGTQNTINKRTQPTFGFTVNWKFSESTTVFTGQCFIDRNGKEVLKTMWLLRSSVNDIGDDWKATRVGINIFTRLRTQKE

- MIF of Fm [1]: 36
- MIF (Peptide 7 …-biotin [2]): 19
- MIF (Peptide 8 …-biotin [3]): 31
- MIF (Peptide 2 …-biotin [4]): 17
- MIF [5]: 915
- MIF (Peptide 9 …-biotin [6]): 31
- MIF (Peptide 1 …-biotin [7]): 13
- MIF (Peptide 6 …-biotin [8]): 32
- MIF (Peptide 4 …-biotin [9]): 20
- MIF (Peptide 3 …-biotin [10]): 20
- MIF of Fm [11]: 60
- MIF of Fm (Peptide 7 …-biotin [12]): 42
- MIF of Fm (Peptide 8 …-biotin [13]): 73
- MIF of Fm (Peptide 2 …-biotin [14]): 57
- MIF of Fm [15]: 1380
- MIF of Fm (Peptide 9 …-biotin [16]): 60
- MIF of Fm (Peptide 1 …-biotin [17]): 72
- MIF of Fm (Peptide 6 …-biotin [18]): 43
- MIF of Fm (Peptide 4 …-biotin [19]): 57
- MIF of Fm (Peptide 3 …-biotin [20]): 47
- MIF of Fm [21]: 66
- MIF of Fm [22]: 25
Substance: MAB 384, Bodipy FL-X labeled (antibody)

- MIF of Fm (Alpha fetoprotein [23]): 103
- MIF of Fm (Alpha fetoprotein [24]): 379
- MIF of Fm (Alpha fetoprotein [25]): 643
- MIF of Fm (Alpha fetoprotein [26]): 24
- MIF of Fm [27]: 72
- MIF of Fm [28]: 44
- MIF of Fm [29]: 45
- MIF AVG (Alpha fetoprotein [30]): 363
- MIF of FL1 (Alpha fetoprotein [30]): 351 and 365 and 372
Substance: M20077 affinity purified polyclonal anti-AFP antibody, Bodipy FL-CASE labeled

- MIF of Fm [31]: 2510
- MIF of Fm (Alpha fetoprotein [32]): 75
- MIF AVG [33]: 272
- MIF of FL1 [33]: 268 and 276 and 271
- MIF of Fm (Alpha fetoprotein [34]): 47
- MIF AVG [35]: 25.7
- MIF of FL1 [35]: 23 and 27
- MIF of Fm [36]: 2440
- MIF of Fm [37]: 2980
- MIF of Fm [38]: 122 and 121
- MIF of Fm [39]: 9440
- MIF of Fm (Alpha fetoprotein [40]): 57
- MIF of Fm [41]: 55
- MIF of Fm [42]: 48
- MIF of Fm (Alpha fetoprotein [43]): 47
- MIF AVG [44]: 7.33
- MIF of FL1 [44]: 8 and 7
Substance: AB633 affinity purified polyclonal anti-hCG antibody, Bodipy FL-CASE labeled
